According to patent US9603953B2, “Dendrimer compositions, methods of synthesis, and uses thereof” (priority 2014, dated 2017):
Entries after “also recorded” stand apart in the source; their conditions may differ.

Columns and labels:
[1] = Biodistribution after in situ direct intrahepatic injection in the rat (Example 6); type: in vivo
Experimental: They were autopsied and major organs were observed macroscopically.
(§1) The removed organs (brain, kidney, liver, heart, intestine, lung, gonads, blood, urine) were weighed and their activities were counted on NaI gamma camera.
The assessment of radioactivity was carried out on the various organs and the carcass alone, urine and whole blood.
FIG. 6 is a scintigraphic image of biodistribution after injection: it will be noted that only the liver, stomach and intestines are discernible.

[2] = Biodistribution after intravenous (intravascular) administration in the rat (Example 5); type: in vivo
Excerpt: as §1

Wistar rats = test: Acute toxicity test after intravenous and intraperitoneal administration in the rat (Example 5); type: in vivo; conditions: male Wistar rats, intravenous injection
Experimental: Species: Wistar rats RjHan: Wi (free of specific pathogens)
Number and sex and Weight: 6 healthy adult rats (males), average weight 300 g
3 groups of male rats: • Group 1 (“G5”): 2 rats (1 and 2) receiving 0.1 ml of labeled solution of dendrimer alone, one via intravenous administration, the other intraperitoneally 1 • Group 2 (“G5-HLS”): 2 rats (3 and 4) receiving 0.1 ml of the solution of the test item “G5 dendrimer {1-nitro-1H-imidazole-methyl -1,2,3-triazol-methyl-di(2-pycolyl)amine}”, one via intravenous administration, the other intraperitoneally • Group 3 (“HLS”): 2 rats (n ° 4 and 5) receiving 0.1 ml of the labeled 1-nitro-1H-imidazole-methyl -1,2,3-triazole-methyl-di-(2-pycolyl) amine, one via intravenous administration, the other intraperitoneally

humans = conditions: 1.3 GBq (35 mCi) dose; cited from earlier work

Substance	retention at the site of introduction ([1]; male rat, laparotomy and direct injection into a liver segment, listed as dendrimer conjugate)	hepatic binding rate ([1]; rat, direct intrahepatic injection, sacrifice at 60 min, 99mTc-labelled) [%]	biodistribution outside the targeted site ([1]; rat, in situ administration at a hepatic lobe, scintigraphy (FIG. 6))	initial injected dose by hepatic mass charged with the test item ([1]; rat, in situ intrahepatic injection, liver) [% DIg]	liver binding after intravascular administration [2] [% DIg]	precipitation or thrombus formation at the injection site (Wistar rats)	systemic toxicity in humans (humans)
Dendrimer G5 {1-nitro-1H-Imidazole-methyl-1,2,3-triazol-methyl-di-(2-pycolyl)amine}	remains almost stable at the site of introduction; also recorded: has not moved a lot from the site of its deposition	53.7	negligible	33.5	1.53	no precipitation was observed or thrombus formation	–
rhenium-188 hydroxyethylidene diphosphonate	–	–	–	–	–	–	no significant toxicity
